Source: publication PMC10876215, “Nucleosome conformation dictates the histone code” (eLife, 2024)
pEC50: −log10 of the molar value.

Columns and labels:
[1] = molecular target: H4K5acK8acK12acK16ac histone peptide (dCypher, biotinylated); experiment: AlphaScreen or HTRF; dCypher on the Alpha platform; biotinylated histone peptide (100 nM final) on streptavidin donor beads, GST-tagged Query titrated and held on glutathione acceptor beads; 50 mM Tris pH 7.5, 50 mM NaCl, 0.01% Tween-20, 0.01% BSA, 0.0004% Poly-L Lysine, 1 mM TCEP; room temperature; relative EC50 (EC50^rel), not an equilibrium Kd
[2] = molecular target: H3K4me3K9acK14acK18ac histone peptide (dCypher, biotinylated); experiment: AlphaScreen or HTRF; dCypher on the Alpha platform; biotinylated histone peptide (100 nM final) on streptavidin donor beads, 6His-tagged Query titrated and held on Ni-NTA acceptor beads; 50 mM Tris pH 7.5, 50 mM NaCl, 0.01% Tween-20, 0.01% BSA, 0.0004% Poly-L Lysine, 1 mM TCEP; room temperature; relative EC50 (EC50^rel)

pEC50 [1] | fold weaker than for the H3K4me3 peptide [2] [fold] | Substance
9.15 | – | GST-BRD4-BD1 (domain or fragment)
– | 2 | BPTF 6His-PHD (domain or fragment)
